Experimental data reported in patent US20190002567A1 (LABORATOIRE FRANCAIS DU FRACTIONNEMENT ET DES …, published 2019).
Substitutions are numbered along the chain they refer to.

T1: human CD303 antigen (C-type lectin domain family 4 member C) (human, UniProt Q8WTT0 1-213)
T1 sequence: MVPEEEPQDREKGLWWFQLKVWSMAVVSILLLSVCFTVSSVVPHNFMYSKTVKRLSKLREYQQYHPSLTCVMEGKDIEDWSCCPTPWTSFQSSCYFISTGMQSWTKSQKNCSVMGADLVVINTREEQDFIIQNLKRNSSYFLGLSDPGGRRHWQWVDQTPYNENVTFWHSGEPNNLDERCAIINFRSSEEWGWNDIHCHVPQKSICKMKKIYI

B1: chimeric antibody 104E10 (antibody, human IgG1, kappa)
heavy: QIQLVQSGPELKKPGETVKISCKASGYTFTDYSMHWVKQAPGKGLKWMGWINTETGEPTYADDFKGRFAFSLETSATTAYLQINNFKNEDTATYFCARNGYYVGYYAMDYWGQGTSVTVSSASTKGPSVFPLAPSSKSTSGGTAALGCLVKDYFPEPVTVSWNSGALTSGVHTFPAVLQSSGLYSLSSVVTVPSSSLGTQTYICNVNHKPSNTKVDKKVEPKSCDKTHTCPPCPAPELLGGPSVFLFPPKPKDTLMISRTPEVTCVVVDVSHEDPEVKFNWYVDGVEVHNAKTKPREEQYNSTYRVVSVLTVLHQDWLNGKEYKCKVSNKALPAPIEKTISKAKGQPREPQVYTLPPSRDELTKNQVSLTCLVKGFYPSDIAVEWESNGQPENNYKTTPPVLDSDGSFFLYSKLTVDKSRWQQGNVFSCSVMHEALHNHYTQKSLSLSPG
light: QIVLTQSPAIMSASPGEKVTMTCSASSSVIYMHWFQQKPGTSPKLWIYSTSNLASGVPARFSGSGSGTSYSLTISRMEAEDAATYYCQQRRSYPYTFGGGTKLEIKRTVAAPSVFIFPPSDEQLKSGTASVVCLLNNFYPREAKVQWKVDNALQSGNSQESVTEQDSKDSTYSLSSTLTLSKADYEKHKVYACEVTHQGLSSPVTKSFNRGEC
notes: Family 2
B2: chimeric antibody 114D11 (antibody, human IgG1, kappa)
heavy: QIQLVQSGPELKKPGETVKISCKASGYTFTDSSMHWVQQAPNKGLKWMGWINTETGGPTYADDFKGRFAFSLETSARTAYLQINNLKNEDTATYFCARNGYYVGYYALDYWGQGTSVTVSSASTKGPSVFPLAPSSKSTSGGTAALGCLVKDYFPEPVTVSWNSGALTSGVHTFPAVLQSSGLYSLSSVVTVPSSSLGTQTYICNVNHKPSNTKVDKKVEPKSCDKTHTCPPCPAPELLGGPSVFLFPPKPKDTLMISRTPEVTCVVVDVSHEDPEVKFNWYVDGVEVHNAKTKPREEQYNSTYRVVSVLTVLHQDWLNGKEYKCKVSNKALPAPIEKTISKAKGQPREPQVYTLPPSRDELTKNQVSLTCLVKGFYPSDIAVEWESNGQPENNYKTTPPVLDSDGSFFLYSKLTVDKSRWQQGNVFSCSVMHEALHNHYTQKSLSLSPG
light: B1 light with M21I, I30F
notes: Family 2
B3: chimeric antibody 102E9 (antibody, human IgG1, kappa)
heavy: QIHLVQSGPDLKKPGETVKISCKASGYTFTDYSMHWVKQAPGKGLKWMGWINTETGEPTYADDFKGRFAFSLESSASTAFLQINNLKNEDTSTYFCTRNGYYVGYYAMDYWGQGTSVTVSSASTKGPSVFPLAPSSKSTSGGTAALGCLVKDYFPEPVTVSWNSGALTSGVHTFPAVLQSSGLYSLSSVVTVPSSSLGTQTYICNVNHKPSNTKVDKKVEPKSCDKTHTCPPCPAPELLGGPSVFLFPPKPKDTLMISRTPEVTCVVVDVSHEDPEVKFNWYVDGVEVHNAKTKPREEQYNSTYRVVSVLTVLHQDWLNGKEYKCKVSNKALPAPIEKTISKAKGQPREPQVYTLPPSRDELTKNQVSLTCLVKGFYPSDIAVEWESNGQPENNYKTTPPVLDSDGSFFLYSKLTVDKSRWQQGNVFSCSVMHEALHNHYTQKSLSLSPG
light: B1 light with M21I, M32I, N52Y, Y95F
notes: Family 2; the text gives the same values for 102E9
B4: chimeric antibody 122A2 (antibody, human IgG1, kappa)
heavy: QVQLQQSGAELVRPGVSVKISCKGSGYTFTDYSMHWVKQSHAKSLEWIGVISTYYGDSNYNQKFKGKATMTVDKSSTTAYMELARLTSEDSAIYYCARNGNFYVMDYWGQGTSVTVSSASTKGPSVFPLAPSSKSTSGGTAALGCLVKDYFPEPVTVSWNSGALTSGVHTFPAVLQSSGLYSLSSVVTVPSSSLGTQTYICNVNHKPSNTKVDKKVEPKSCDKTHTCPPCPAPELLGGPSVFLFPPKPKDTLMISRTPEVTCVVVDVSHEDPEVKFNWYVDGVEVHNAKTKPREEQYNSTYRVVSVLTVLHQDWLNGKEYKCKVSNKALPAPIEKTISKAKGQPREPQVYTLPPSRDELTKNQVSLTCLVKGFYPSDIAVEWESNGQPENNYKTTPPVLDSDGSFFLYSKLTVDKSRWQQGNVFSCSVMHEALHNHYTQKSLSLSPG
light: DIQMTQTTSSLSASLGDRVTISCRASQDISNYLNWYQQKPDGTVKLLIYYTSRLHSGVPSRFSGSGSGTDYSLTISNLDQEDIATYFCQQGNTLPWTFGGGTKLEIKRTVAAPSVFIFPPSDEQLKSGTASVVCLLNNFYPREAKVQWKVDNALQSGNSQESVTEQDSKDSTYSLSSTLTLSKADYEKHKVYACEVTHQGLSSPVTKSFNRGEC
notes: Family 1; also called Ch; 122A2 mAb; Ch122A2 mAb
B5: chimeric antibody 104C12 (antibody, human IgG1, kappa)
heavy: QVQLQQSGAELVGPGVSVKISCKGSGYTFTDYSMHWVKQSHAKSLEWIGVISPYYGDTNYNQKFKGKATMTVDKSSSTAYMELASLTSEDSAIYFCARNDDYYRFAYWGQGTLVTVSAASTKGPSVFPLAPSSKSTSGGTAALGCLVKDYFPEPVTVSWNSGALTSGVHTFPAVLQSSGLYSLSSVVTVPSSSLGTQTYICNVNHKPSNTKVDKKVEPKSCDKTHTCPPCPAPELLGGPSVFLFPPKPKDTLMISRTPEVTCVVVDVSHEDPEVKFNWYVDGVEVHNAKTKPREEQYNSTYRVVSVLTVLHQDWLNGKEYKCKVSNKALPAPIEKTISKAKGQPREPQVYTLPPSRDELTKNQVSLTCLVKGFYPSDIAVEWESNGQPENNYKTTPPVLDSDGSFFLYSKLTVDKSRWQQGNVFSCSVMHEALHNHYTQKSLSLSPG
light: DLQMTQTPSSLSASLGDRVTISCRASQDINNYLSWYQEKPDGTFKLLIYYTSRLHSGVPSRFSGSGSGTDYSLTVRNLEQEDIGTYFCQQGKTLPWTFGGGTKLEIRRTVAAPSVFIFPPSDEQLKSGTASVVCLLNNFYPREAKVQWKVDNALQSGNSQESVTEQDSKDSTYSLSSTLTLSKADYEKHKVYACEVTHQGLSSPVTKSFNRGEC
notes: Family 1

Tests used:
FcγRIIIa (CD16a) = target: T2, FcγRIIIa (CD16a) (UniProt P08637 17-254, limits assumed); experiment: competition with 3G8-PE for CD16 on NK cells, flow cytometry
T2 construct: whole, on cells; also called FcvRIIIa
Description: After washing, the binding of 3G8-PE to CD16 expressed by the NK cells was evaluated by flow cytometry. Mean fluorescence intensity (MFI) values are expressed as a percentage, 100% being the value obtained with the 3G8-PE antibody alone, and 0% the value obtained in the absence of 3G8-PE.

[1] = target: T1, human CD303 antigen (C-type lectin …); experiment: cell-based or functional assay

T2 sequence (P08637 17-254 limits assumed): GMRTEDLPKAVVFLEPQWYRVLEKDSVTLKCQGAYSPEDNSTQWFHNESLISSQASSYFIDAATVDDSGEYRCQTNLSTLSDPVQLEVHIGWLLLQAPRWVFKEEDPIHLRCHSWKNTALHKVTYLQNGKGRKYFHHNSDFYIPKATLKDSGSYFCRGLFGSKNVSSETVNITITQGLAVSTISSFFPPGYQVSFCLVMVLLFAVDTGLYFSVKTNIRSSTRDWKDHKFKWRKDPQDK

| Binder | IC50 (FcγRIIIa (CD16a)) | ADCC EC50 (ng/mL) on Fc Gamma chain-CD303 Jurkat target cells [1] | ADCC Emax (% lysis) on Fc Gamma chain-CD303 Jurkat target cells [1] |
| --- | --- | --- | --- |
| B1 | 18.1 µg/mL | 8.28 ng/mL | 40.5 % lysis |
| B2 | 45 µg/mL | 3.61 ng/mL | 37.4 % lysis |
| B3 | 37 µg/mL | 3.42 ng/mL | 38.9 % lysis |
| B4 | 40.4 µg/mL | 0.159 ng/mL | 42.4 % lysis |
| B5 | 26.8 µg/mL | 0.214 ng/mL | 41.8 % lysis |
